Experimental data as given in paper PMC6608616 (IUCrJ, 2019).

Molecular target: Tryptophan synthase β subunit (TrpB) from Streptococcus pneumoniae (Streptococcus pneumoniae TIGR4, UniProt Q97P32 4-407, PLP covalently attached to Lys91)
Test: crystal structure
Conditions: both partners purified

B1: Tryptophan synthase α subunit (TrpA) from Streptococcus pneumoniae (enzyme)
chain: MPKTLTEKLNAIKAAGKGIFVPYIMAGDHEKGLDGLAETIHFLEDLGVSAIEVGIPFSDPVADGPVIEEAGLRSLAHGTSTQALVETLKTIETEIPLVIMTYFNPLFQYGVENFVKDLADTAVKGLIIPDLPHEHANFVEPFLANTDIALIPLVSLTTGIERQKELIEGAEGFIYAVAINGVTGKSGNYRADLDKHLAQLHQVADIPVLTGFGVSSQADLERFNAVSDGVIVGSKIVKALHQGEPIQDFIRQAVAYQK
B1: binds.
